# Results published in article PMC9980222.
# Tests used:
# [1] = molecular target: B41 SOSIP.664-His trimer (HIV-1 isolate B41 (Clade B)); test: native gel or EMSA
# [2] = molecular target: B41 SOSIP.664-His trimer (HIV-1 isolate B41 (Clade B)); test: negative-stain electron microscopy
# [3] = molecular target: BG505 SOSIP.664-His trimer (HIV-1 isolate BG505 (Clade A)); test: SPR
# [4] = molecular target: BG505 SOSIP.664-His trimer (HIV-1 isolate BG505 (Clade A))
substance,measurement,setting,value
B41 SOSIP.664-His trimer (complex),stoichiometry N,[1],3
same,stoichiometry N,[2],3
PGT151 Fab,"KD1 (site 1, heterogeneous-ligand model)",[3],< 0.1 nM
same,"KD2 (site 2, heterogeneous-ligand model)",[3],27 nM
same,Kd,[3],2 nM
same,"Sm1 (stoichiometry of site 1, heterogeneous-ligand model) (Fab molecules per trimer)",[3],1.2
same,"Sm1+Sm2 (cumulative stoichiometry, heterogeneous-ligand model) (Fab molecules per trimer)",[3],1.9
same,"Sm2 (stoichiometry of site 2, heterogeneous-ligand model) (Fab molecules per trimer)",[3],0.7
same,koff,[3],0.00018 s⁻¹
same,"koff1 (site 1, heterogeneous-ligand model)",[3],< 1e-05 s⁻¹
same,"koff2 (site 2, heterogeneous-ligand model)",[3],0.00076 s⁻¹
same,kon,[3],87000 M⁻¹ s⁻¹
same,"kon1 (site 1, heterogeneous-ligand model)",[3],140000 M⁻¹ s⁻¹
same,"kon2 (site 2, heterogeneous-ligand model)",[3],28000 M⁻¹ s⁻¹
same,stoichiometry N (Fab molecules per trimer),[3],1.9
PGT151 IgG (antibody),"IC50 of neutralization of BG505 Env-pseudotyped virus, TZM-bl assay",[4],0.043 µg/mL
